This note sets out measurements from patent publication US20230346967A1 (published 2023).

The target in one assay is T1, recombinant human TfR1 (human, UniProt P02786 89-760).
T1 construct: also called hTfR1; huTfR1
Nature of the assay: printed: DMPK oligo conjugate binding to hTfR1.

The next assay concerns the target T2, recombinant human TfR2 (human, UniProt Q9UP52 105-801, limits assumed).
T2 construct: also called hTfR2; transferrin receptor 2
T2 sequence (looked up): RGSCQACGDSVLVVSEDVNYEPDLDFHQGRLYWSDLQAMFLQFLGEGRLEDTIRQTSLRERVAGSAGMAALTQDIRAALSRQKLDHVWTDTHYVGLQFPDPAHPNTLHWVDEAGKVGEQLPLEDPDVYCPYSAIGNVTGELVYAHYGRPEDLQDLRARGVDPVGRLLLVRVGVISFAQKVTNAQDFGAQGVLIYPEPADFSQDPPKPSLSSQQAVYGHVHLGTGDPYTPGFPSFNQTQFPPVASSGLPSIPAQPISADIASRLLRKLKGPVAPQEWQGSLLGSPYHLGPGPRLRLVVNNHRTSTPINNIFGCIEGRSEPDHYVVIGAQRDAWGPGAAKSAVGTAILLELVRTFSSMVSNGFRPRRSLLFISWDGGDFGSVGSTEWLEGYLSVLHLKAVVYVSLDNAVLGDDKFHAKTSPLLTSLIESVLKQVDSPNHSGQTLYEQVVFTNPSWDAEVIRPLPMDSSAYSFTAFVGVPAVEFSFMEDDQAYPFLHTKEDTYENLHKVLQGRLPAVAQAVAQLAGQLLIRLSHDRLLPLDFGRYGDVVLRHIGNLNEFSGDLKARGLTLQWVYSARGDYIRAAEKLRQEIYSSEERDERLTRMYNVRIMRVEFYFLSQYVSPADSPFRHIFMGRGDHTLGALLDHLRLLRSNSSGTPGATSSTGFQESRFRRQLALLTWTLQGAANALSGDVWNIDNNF
Nature of the assay: SPR. On the technique in general: In SPR one partner is held on a chip, and binding of the other changes the refractive index at the surface.

The next assay addresses recombinant mouse TfR1 (mouse, UniProt Q62351 89-763). Nature of the assay: ELISA, plates precoated with recombinant TfR1. As to the method:
(§1) Serial dilutions of the Fab were added to plates precoated with recombinant human, cynomolgus monkey, mouse, or rat TfR1. After a short incubation, binding of the Fab was quantified by addition of a fluorescently tagged anti-(H+L) IgG secondary antibody and measurement of fluorescence intensity at 495 nm excitation and 520 nm emission.
(An ELISA detects its analyte on a solid surface through an enzyme-linked reagent.)

A further assay deals with recombinant rat TfR1 (rat, UniProt Q99376 89-761, limits assumed). Nature of the assay: ELISA, plates precoated with recombinant TfR1. The protocol: as §1
recombinant rat TfR1, sequence (Q99376 89-761 limits assumed): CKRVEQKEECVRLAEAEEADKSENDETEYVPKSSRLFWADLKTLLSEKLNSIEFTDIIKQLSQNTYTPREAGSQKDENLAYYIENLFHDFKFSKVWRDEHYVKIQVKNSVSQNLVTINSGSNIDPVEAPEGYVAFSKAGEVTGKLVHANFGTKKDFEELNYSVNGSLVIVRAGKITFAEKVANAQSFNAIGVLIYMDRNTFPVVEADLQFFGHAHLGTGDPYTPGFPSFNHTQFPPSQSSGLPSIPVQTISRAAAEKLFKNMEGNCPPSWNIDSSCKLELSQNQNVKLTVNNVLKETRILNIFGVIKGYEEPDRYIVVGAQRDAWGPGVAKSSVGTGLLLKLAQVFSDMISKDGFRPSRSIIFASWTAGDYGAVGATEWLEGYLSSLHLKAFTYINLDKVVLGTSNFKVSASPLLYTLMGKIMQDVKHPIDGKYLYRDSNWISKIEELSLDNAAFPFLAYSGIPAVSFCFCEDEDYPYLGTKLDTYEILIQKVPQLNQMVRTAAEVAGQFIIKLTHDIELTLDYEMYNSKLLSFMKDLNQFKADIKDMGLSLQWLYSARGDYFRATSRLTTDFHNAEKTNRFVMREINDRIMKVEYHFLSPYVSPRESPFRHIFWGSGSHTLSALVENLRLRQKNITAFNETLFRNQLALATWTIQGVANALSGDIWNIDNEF

Usually EC50 stands for the concentration that produces a half-maximal response.

recombinant mouse TfR1, sequence (Q62351 89-763 limits assumed): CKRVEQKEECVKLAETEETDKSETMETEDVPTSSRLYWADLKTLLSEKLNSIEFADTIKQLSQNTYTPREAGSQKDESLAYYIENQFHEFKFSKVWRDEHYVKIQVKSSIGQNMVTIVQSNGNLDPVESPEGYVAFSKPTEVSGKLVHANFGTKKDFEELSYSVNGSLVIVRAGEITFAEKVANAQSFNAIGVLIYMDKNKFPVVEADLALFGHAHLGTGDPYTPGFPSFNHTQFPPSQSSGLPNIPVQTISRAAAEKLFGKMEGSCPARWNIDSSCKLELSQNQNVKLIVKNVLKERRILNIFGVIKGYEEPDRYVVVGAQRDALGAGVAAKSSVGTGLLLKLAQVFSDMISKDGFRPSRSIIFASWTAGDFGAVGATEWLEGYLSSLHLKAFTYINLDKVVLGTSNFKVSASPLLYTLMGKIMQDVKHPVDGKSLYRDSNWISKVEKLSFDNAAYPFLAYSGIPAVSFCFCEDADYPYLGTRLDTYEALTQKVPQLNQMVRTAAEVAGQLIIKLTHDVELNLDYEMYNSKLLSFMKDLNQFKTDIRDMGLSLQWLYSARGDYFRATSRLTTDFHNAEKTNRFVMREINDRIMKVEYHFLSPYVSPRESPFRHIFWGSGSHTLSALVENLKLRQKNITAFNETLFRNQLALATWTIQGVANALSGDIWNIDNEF
T1 sequence (P02786 89-760 limits assumed): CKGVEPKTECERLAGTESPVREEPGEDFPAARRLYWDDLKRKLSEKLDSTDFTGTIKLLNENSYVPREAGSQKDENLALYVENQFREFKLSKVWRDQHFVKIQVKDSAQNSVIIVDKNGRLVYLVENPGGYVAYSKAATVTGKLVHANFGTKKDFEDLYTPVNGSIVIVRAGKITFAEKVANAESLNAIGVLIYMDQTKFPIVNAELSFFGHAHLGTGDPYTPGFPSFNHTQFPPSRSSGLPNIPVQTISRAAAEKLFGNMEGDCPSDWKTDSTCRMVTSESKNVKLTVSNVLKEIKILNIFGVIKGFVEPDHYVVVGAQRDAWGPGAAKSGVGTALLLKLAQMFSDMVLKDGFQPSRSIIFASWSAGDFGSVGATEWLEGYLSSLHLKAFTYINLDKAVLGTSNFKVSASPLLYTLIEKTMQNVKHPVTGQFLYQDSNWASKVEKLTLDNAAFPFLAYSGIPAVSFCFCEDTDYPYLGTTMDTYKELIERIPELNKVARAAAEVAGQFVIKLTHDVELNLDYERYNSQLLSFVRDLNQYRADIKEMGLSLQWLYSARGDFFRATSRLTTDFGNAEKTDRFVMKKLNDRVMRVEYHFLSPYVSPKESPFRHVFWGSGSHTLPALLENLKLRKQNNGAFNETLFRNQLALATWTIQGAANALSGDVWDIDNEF

B1: humanized anti-TfR Fab 3A4 VH3/Vκ4 conjugated to DMPK-targeting oligonucleotide ASO300 (Fab, V domains shown)
VH: EVQLVQSGSELKKPGASVKVSCTASGFNIKDDYMYWVRQPPGKGLEWIGWIDPENGDTEYASKFQDRVTVTADTSTNTAYMELSSLRSEDTAVYYCTLWLRRGLDYWGQGTLVTVSS
VL: DIVMTQSPLSLPVTPGEPASISCRSSKSLLHSNGYTYLFWFQQRPGQSPRLLIYRMSNLASGVPDRFSGSGSGTDFTLKISRVEAEDVGVYYCMQHLEYPFTFGGGTKVEIKR
modifications: DMPK-targeting oligonucleotide ASO300 conjugated to the Fab; chain and residue not stated for this example
notes: The oligonucleotide may sit on either chain; also called 3A4 (VH3/Vk4) conjugate; DMPK oligo conjugate
As to B1, the concentration giving a half-maximal response (EC50) with recombinant human TfR1 came to 2.84 nM.

B2: humanized anti-TfR Fab 3M12 VH4/Vκ3 (Fab, V domains shown)
VH: QVQLQESGPGLVKPSQTLSLTCTVTGYSITSGYYWNWIRQPPGKGLEWIGYITFDGANNYNPSLKNRVSISRDTSKNQFSLKLSSVTAEDTATYYCTRSSYDYDVLDYWGQGTTVTVSS
VL: DIQMTQSPSSLSASVGDRVTITCRASQDISNFLNWYQQKPGQPVKLLIYYTSRLHSGVPSRFSGSGSGTDFTLTISSLQPEDFATYYCQQGHTLPYTFGQGTKLEIKR
notes: also called 3M12 (VH4/Vk3); 3M12 VH4/VK3
With B2, the binding result with recombinant human TfR2, with recombinant mouse TfR1 and in the assay with recombinant rat TfR1 was “no binding” in each case.
